B1: TPR t1 (parent)
chain: GACCAAUCUGCCCUCAGAGCUCGAGAACAUCUUCGGAUGCAGAGGAGGCAGGCUUCGGUGGCGCGAUAGCGCCAACGUCCUCAACCUCCAAUGCAUCCCACCACAUGAUGAUGCCUGAAGAGCCUUGGUUUUUUG

Variants of: B1
Assay: polymerase ribozyme fitness, log enrichment relative to wild type (log ratio); higher = more active; in vitro selection for triplet polymerase activity
Outline: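 The heterodimeric triplet polymerase ribozyme's subunits were each mutagenized into PCR-built libraries and transcribed. Every library was selected once, in triplicate, by annealing with a biotinylated primer, the partner subunit and triplets, incubating frozen at −7 °C, gel-excising extended constructs, capturing on streptavidin beads and running RT-PCR. Input and output libraries were Illumina-sequenced, with genotypes kept only at ≥10 input reads and ≥1 read per output. Fitness, from inverse-variance-weighted replicate averages, is the base-2 logarithm of genotype enrichment over wild-type enrichment.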

Variant | polymerase ribozyme fitness (log ratio)
C22A G25C G45C G48U U59A C115U | -6.59
C13U G47U C88U A90G U106G | -2.13
C3A G39A C104U C115U | -2.58
U55G U109A | -5.03
G10U A37C C53G A95G | -0.638
C72U G122A | -0.576
U9C G36C A50U C70A A75U U106A | -6.28
G36U G47U U59A G117C | -6.9
G71U A119U | -0.434
C11U G45A G48A A74U | -2.5
C22U U78C | -3.42
U78C G113C | -1.53
A5C A46U U106C | -1.72
G39U A50C | -1.21
A90C A118C | -2.82
A27U C53A | -3.49
C56U C70G C115A G122A | -4.59
C8A G36U G42A | -3.09
A37U U38C C53U | -1.6
C4U C70A A121C U131A | -0.259
U14A C40U G44C C49A | -3.39

Variant | polymerase ribozyme fitness (log ratio)
U9A G93A U106C | -0.115
C53U A90C C104A A121G C123A | -2.12
G48A C49U C56A A100U | -2.11
U109A U133A | -5.88
G61C G71A | -4.05
A2U C11U G69A | -4.07
G61C C80A U109G | -6.27
C12A A43U C56A | -2.54
G52U C53U C56U G93U U109G | -6.55
A43G A50G C101G C124A U129A | -3.82
C13G G69U G113A | -2.1
A27G C40G G107C C115U G120U U131A | -5.69
A16U A37U C56G | -3.71
U54C C56G U131G | -1.34
C13U A66G C76U C88U G128C | -3.51
G45C G63C | -2.1
C11U G52A C56U C72G U109G | -5.83
U116C G135A | -0.82
C40U C49A C89G | -2.46
U132G | -2.28
C3A G36A G71C C123G | -1.87

Variant | polymerase ribozyme fitness (log ratio)
C70U C82G U106C | -1.36
C73G U78A C94A U125G | -1.59
C3U C8U G61C G120A | 0.504
C12U U78C | -0.312
A41G C56U C72G G113A G128U | -5.35
C56A U59G | -1.14
A46G C76U C94G G120C | -1.42
U87A C97U | -0.196
C11G U30G U112A | -4.82
G45A U106C | -1.09
C40A C104U G110U A111U C123G U125G | -6.57
G60C G110A | -1
C49U G61C | -1.88
C8G G10A C15G G77C G110A | -3.26
G42U G60A G128C | -3.97
C62U G63U U109G | -7.47
U38G A111C | -0.398
U96A U129C | -1.7
C56A C64U C115A U126C | -2.05
G63A C89A | -3.19
C62A G128C | -3.8

Variant | polymerase ribozyme fitness (log ratio)
G61U C62A U112A G128A U133A | -5.42
G36A A46C C104U U116A | -3.8
A16C G47U | -3.93
A41G G48U U112C | 0.49
A18G C40U C53U A83U G93C | -5.03
G42C G48C U55C | -1.95
C11U G135A | -1.27
C62U C97G | -4.18
C40U G44A | -0.755
C70U G110U G135U | -3.77
C13G A95G U112C C124U | 1.05
U55C G61C C80A | -3.32
U81C A83G | -1.15
G61U U78C | -0.574
U7A U55A U87C | 0.229
A6U G45U C49U C76G | -0.941
G10U C13U C73U C102G A119U C124A | -5.74
A41U G69C U78C A100U | -6.25
C101A C115A G120C | -0.291
C8U C11U | -0.675
G110U G122A | -2.47
